Starred links: 1 amine or outer side, 2 acyl side, 3 side chain; linkers in the order of their positions; H or OH if unused. Non-standard residues stand in square brackets, D forms with d. Groups on a side chain read outwards from the residue. No end group written: not given here. *: point of attachment. C16 diacid = O=C(O)CCCCCCCCCCCCCCC(=O)*; γGlu = O=C(O)[C@H](CCC(=O)[*:2])N[*:1]; Aib = CC(C)(N)C(=O)O
T1: CRF1R receptor (anti-target) (UniProt P34998 24-415, limits assumed)
T1 sequence (looked up): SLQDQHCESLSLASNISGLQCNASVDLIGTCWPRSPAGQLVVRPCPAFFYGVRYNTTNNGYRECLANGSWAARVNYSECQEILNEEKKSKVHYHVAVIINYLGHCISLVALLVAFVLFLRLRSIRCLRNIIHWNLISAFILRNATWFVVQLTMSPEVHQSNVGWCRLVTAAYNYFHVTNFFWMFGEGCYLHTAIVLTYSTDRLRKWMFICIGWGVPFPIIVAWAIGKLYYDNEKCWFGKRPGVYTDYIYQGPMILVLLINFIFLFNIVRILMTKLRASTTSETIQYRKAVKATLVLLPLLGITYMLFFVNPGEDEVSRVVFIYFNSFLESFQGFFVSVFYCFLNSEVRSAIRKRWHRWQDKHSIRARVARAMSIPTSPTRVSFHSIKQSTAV

T2: CRF1R receptor (anti-target) (UniProt P34998 24-415, limits assumed)
T2 sequence (looked up): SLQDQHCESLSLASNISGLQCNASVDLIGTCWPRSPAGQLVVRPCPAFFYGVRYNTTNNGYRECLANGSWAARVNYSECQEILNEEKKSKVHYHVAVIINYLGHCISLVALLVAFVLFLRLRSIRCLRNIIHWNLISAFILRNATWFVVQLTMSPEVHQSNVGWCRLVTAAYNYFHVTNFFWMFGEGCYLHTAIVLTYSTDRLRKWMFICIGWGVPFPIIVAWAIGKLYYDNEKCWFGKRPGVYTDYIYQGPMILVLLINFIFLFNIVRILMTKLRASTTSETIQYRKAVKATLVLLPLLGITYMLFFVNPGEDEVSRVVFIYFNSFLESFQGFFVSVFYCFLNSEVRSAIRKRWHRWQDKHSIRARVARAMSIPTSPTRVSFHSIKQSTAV


Tests used:
Assay in all cases: cell-based or functional assay
[1] = molecular target: human corticotropin-releasing factor 2α (CRF2α receptor) (human), Q13324
Chain of human corticotropin-releasing factor 2α (CRF2α receptor) (human), Q13324 (Q13324 20-411): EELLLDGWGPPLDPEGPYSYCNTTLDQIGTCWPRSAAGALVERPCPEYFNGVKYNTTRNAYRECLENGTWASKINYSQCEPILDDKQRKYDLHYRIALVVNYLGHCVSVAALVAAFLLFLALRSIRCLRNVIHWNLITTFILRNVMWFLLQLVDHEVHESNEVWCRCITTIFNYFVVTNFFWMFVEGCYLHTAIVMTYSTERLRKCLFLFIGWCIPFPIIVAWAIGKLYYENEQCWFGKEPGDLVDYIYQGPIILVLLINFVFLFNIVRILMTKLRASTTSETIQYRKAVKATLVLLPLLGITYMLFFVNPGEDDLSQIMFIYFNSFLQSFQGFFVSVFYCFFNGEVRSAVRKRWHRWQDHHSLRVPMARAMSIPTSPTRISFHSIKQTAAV

[2] = molecular target: T1, CRF1R receptor (anti-target)
[3] = molecular target: T2, CRF1R receptor (anti-target); remark: listed apart in the source

EC50 [nM], 0% HSA (cAMP, HTRF) [1]	EC50 [nM] 0% HSA (cAMP, HTRF) [2]	Emax (%) (100% = Sauvagine at 100 nM) [2]	CRF1/CRF2 ratio (of EC50) [3]	CRF1 EC50 (cAMP, HTRF) [3]	Binder
7.38 nM	> 100 nM	6.2%			IVLSLD[dV]PTKLK([γGlu-C16 diacid])QKLLKQERQRKEREQAEKNVRILERV-NH2 (N-terminus assumed; SMILES CC[C@H](C)[C@H](N)C(=O)N[C@H](C(=O)N[C@@H](CC(C)C)C(=O)N[C@@H](CO)C(=O)N[C@@H](CC(C)C)C(=O)N[C@@H](CC(=O)O)C(=O)N[C@@H](C(=O)N1CCC[C@H]1C(=O)N[C@H](C(=O)N[C@@H](CCCCN)C(=O)N[C@@H](CC(C)C)C(=O)N[C@@H](CCCCNC(=O)CC[C@H](NC(=O)CCCCCCCCCCCCCCC(=O)O)C(=O)O)C(=O)N[C@@H](CCC(N)=O)C(=O)N[C@@H](CCCCN)C(=O)N[C@@H](CC(C)C)C(=O)N[C@@H](CC(C)C)C(=O)N[C@@H](CCCCN)C(=O)N[C@@H](CCC(N)=O)C(=O)N[C@@H](CCC(=O)O)C(=O)N[C@@H](CCCNC(=N)N)C(=O)N[C@@H](CCC(N)=O)C(=O)N[C@@H](CCCNC(=N)N)C(=O)N[C@@H](CCCCN)C(=O)N[C@@H](CCC(=O)O)C(=O)N[C@@H](CCCNC(=N)N)C(=O)N[C@@H](CCC(=O)O)C(=O)N[C@@H](CCC(N)=O)C(=O)N[C@@H](C)C(=O)N[C@@H](CCC(=O)O)C(=O)N[C@@H](CCCCN)C(=O)N[C@@H](CC(N)=O)C(=O)N[C@H](C(=O)N[C@@H](CCCNC(=N)N)C(=O)N[C@H](C(=O)N[C@@H](CC(C)C)C(=O)N[C@@H](CCC(=O)O)C(=O)N[C@@H](CCCNC(=N)N)C(=O)N[C@H](C(N)=O)C(C)C)[C@@H](C)CC)C(C)C)[C@@H](C)O)C(C)C)C(C)C) [peptide of SEQ ID NO: 222]
			> 500	> 0.1 µM	IVLSLD[dV]PIKLK([γGlu-C16 diacid])QILLKQERQKKQREQAEKNKQILEQV-NH2 (N-terminus assumed; SMILES CC[C@H](C)[C@H](N)C(=O)N[C@H](C(=O)N[C@@H](CC(C)C)C(=O)N[C@@H](CO)C(=O)N[C@@H](CC(C)C)C(=O)N[C@@H](CC(=O)O)C(=O)N[C@@H](C(=O)N1CCC[C@H]1C(=O)N[C@H](C(=O)N[C@@H](CCCCN)C(=O)N[C@@H](CC(C)C)C(=O)N[C@@H](CCCCNC(=O)CC[C@H](NC(=O)CCCCCCCCCCCCCCC(=O)O)C(=O)O)C(=O)N[C@@H](CCC(N)=O)C(=O)N[C@H](C(=O)N[C@@H](CC(C)C)C(=O)N[C@@H](CC(C)C)C(=O)N[C@@H](CCCCN)C(=O)N[C@@H](CCC(N)=O)C(=O)N[C@@H](CCC(=O)O)C(=O)N[C@@H](CCCNC(=N)N)C(=O)N[C@@H](CCC(N)=O)C(=O)N[C@@H](CCCCN)C(=O)N[C@@H](CCCCN)C(=O)N[C@@H](CCC(N)=O)C(=O)N[C@@H](CCCNC(=N)N)C(=O)N[C@@H](CCC(=O)O)C(=O)N[C@@H](CCC(N)=O)C(=O)N[C@@H](C)C(=O)N[C@@H](CCC(=O)O)C(=O)N[C@@H](CCCCN)C(=O)N[C@@H](CC(N)=O)C(=O)N[C@@H](CCCCN)C(=O)N[C@@H](CCC(N)=O)C(=O)N[C@H](C(=O)N[C@@H](CC(C)C)C(=O)N[C@@H](CCC(=O)O)C(=O)N[C@@H](CCC(N)=O)C(=O)N[C@H](C(N)=O)C(C)C)[C@@H](C)CC)[C@@H](C)CC)[C@@H](C)CC)C(C)C)C(C)C) [peptide of SEQ ID NO: 190]
2.71 nM	> 100 nM	3.2%			IVLSLD[dV]PTKLK([γGlu-C16 diacid])QKLLKQERQRKEREQAEKNARILARV-NH2 (N-terminus assumed; SMILES CC[C@H](C)[C@H](N)C(=O)N[C@H](C(=O)N[C@@H](CC(C)C)C(=O)N[C@@H](CO)C(=O)N[C@@H](CC(C)C)C(=O)N[C@@H](CC(=O)O)C(=O)N[C@@H](C(=O)N1CCC[C@H]1C(=O)N[C@H](C(=O)N[C@@H](CCCCN)C(=O)N[C@@H](CC(C)C)C(=O)N[C@@H](CCCCNC(=O)CC[C@H](NC(=O)CCCCCCCCCCCCCCC(=O)O)C(=O)O)C(=O)N[C@@H](CCC(N)=O)C(=O)N[C@@H](CCCCN)C(=O)N[C@@H](CC(C)C)C(=O)N[C@@H](CC(C)C)C(=O)N[C@@H](CCCCN)C(=O)N[C@@H](CCC(N)=O)C(=O)N[C@@H](CCC(=O)O)C(=O)N[C@@H](CCCNC(=N)N)C(=O)N[C@@H](CCC(N)=O)C(=O)N[C@@H](CCCNC(=N)N)C(=O)N[C@@H](CCCCN)C(=O)N[C@@H](CCC(=O)O)C(=O)N[C@@H](CCCNC(=N)N)C(=O)N[C@@H](CCC(=O)O)C(=O)N[C@@H](CCC(N)=O)C(=O)N[C@@H](C)C(=O)N[C@@H](CCC(=O)O)C(=O)N[C@@H](CCCCN)C(=O)N[C@@H](CC(N)=O)C(=O)N[C@@H](C)C(=O)N[C@@H](CCCNC(=N)N)C(=O)N[C@H](C(=O)N[C@@H](CC(C)C)C(=O)N[C@@H](C)C(=O)N[C@@H](CCCNC(=N)N)C(=O)N[C@H](C(N)=O)C(C)C)[C@@H](C)CC)[C@@H](C)O)C(C)C)C(C)C) [peptide of SEQ ID NO: 221]
			> 500	> 0.1 µM	IVLSLD[dV]PIKLK([γGlu-C16 diacid])QILLKQARQK[Aib]QRAQAEKNKRILERV-NH2 (N-terminus assumed; SMILES CC[C@H](C)[C@H](N)C(=O)N[C@H](C(=O)N[C@@H](CC(C)C)C(=O)N[C@@H](CO)C(=O)N[C@@H](CC(C)C)C(=O)N[C@@H](CC(=O)O)C(=O)N[C@@H](C(=O)N1CCC[C@H]1C(=O)N[C@H](C(=O)N[C@@H](CCCCN)C(=O)N[C@@H](CC(C)C)C(=O)N[C@@H](CCCCNC(=O)CC[C@H](NC(=O)CCCCCCCCCCCCCCC(=O)O)C(=O)O)C(=O)N[C@@H](CCC(N)=O)C(=O)N[C@H](C(=O)N[C@@H](CC(C)C)C(=O)N[C@@H](CC(C)C)C(=O)N[C@@H](CCCCN)C(=O)N[C@@H](CCC(N)=O)C(=O)N[C@@H](C)C(=O)N[C@@H](CCCNC(=N)N)C(=O)N[C@@H](CCC(N)=O)C(=O)N[C@@H](CCCCN)C(=O)NC(C)(C)C(=O)N[C@@H](CCC(N)=O)C(=O)N[C@@H](CCCNC(=N)N)C(=O)N[C@@H](C)C(=O)N[C@@H](CCC(N)=O)C(=O)N[C@@H](C)C(=O)N[C@@H](CCC(=O)O)C(=O)N[C@@H](CCCCN)C(=O)N[C@@H](CC(N)=O)C(=O)N[C@@H](CCCCN)C(=O)N[C@@H](CCCNC(=N)N)C(=O)N[C@H](C(=O)N[C@@H](CC(C)C)C(=O)N[C@@H](CCC(=O)O)C(=O)N[C@@H](CCCNC(=N)N)C(=O)N[C@H](C(N)=O)C(C)C)[C@@H](C)CC)[C@@H](C)CC)[C@@H](C)CC)C(C)C)C(C)C) [peptide of SEQ ID NO: 197]
			> 500	> 0.1 µM	IVLSLD[dV]PIGLK([γGlu-C16 diacid])QILLKQERQKK[Aib]REQAEKNKRILERV-NH2 (N-terminus assumed; SMILES CC[C@H](C)[C@H](N)C(=O)N[C@H](C(=O)N[C@@H](CC(C)C)C(=O)N[C@@H](CO)C(=O)N[C@@H](CC(C)C)C(=O)N[C@@H](CC(=O)O)C(=O)N[C@@H](C(=O)N1CCC[C@H]1C(=O)N[C@H](C(=O)NCC(=O)N[C@@H](CC(C)C)C(=O)N[C@@H](CCCCNC(=O)CC[C@H](NC(=O)CCCCCCCCCCCCCCC(=O)O)C(=O)O)C(=O)N[C@@H](CCC(N)=O)C(=O)N[C@H](C(=O)N[C@@H](CC(C)C)C(=O)N[C@@H](CC(C)C)C(=O)N[C@@H](CCCCN)C(=O)N[C@@H](CCC(N)=O)C(=O)N[C@@H](CCC(=O)O)C(=O)N[C@@H](CCCNC(=N)N)C(=O)N[C@@H](CCC(N)=O)C(=O)N[C@@H](CCCCN)C(=O)N[C@@H](CCCCN)C(=O)NC(C)(C)C(=O)N[C@@H](CCCNC(=N)N)C(=O)N[C@@H](CCC(=O)O)C(=O)N[C@@H](CCC(N)=O)C(=O)N[C@@H](C)C(=O)N[C@@H](CCC(=O)O)C(=O)N[C@@H](CCCCN)C(=O)N[C@@H](CC(N)=O)C(=O)N[C@@H](CCCCN)C(=O)N[C@@H](CCCNC(=N)N)C(=O)N[C@H](C(=O)N[C@@H](CC(C)C)C(=O)N[C@@H](CCC(=O)O)C(=O)N[C@@H](CCCNC(=N)N)C(=O)N[C@H](C(N)=O)C(C)C)[C@@H](C)CC)[C@@H](C)CC)[C@@H](C)CC)C(C)C)C(C)C) [peptide of SEQ ID NO: 196]
			> 500	> 0.1 µM	IVLSLD[dV]PIGLK([γGlu-C16 diacid])QILLKQERQKK[Aib]REQAETNKRILERV-NH2 (N-terminus assumed; SMILES CC[C@H](C)[C@H](N)C(=O)N[C@H](C(=O)N[C@@H](CC(C)C)C(=O)N[C@@H](CO)C(=O)N[C@@H](CC(C)C)C(=O)N[C@@H](CC(=O)O)C(=O)N[C@@H](C(=O)N1CCC[C@H]1C(=O)N[C@H](C(=O)NCC(=O)N[C@@H](CC(C)C)C(=O)N[C@@H](CCCCNC(=O)CC[C@H](NC(=O)CCCCCCCCCCCCCCC(=O)O)C(=O)O)C(=O)N[C@@H](CCC(N)=O)C(=O)N[C@H](C(=O)N[C@@H](CC(C)C)C(=O)N[C@@H](CC(C)C)C(=O)N[C@@H](CCCCN)C(=O)N[C@@H](CCC(N)=O)C(=O)N[C@@H](CCC(=O)O)C(=O)N[C@@H](CCCNC(=N)N)C(=O)N[C@@H](CCC(N)=O)C(=O)N[C@@H](CCCCN)C(=O)N[C@@H](CCCCN)C(=O)NC(C)(C)C(=O)N[C@@H](CCCNC(=N)N)C(=O)N[C@@H](CCC(=O)O)C(=O)N[C@@H](CCC(N)=O)C(=O)N[C@@H](C)C(=O)N[C@@H](CCC(=O)O)C(=O)N[C@H](C(=O)N[C@@H](CC(N)=O)C(=O)N[C@@H](CCCCN)C(=O)N[C@@H](CCCNC(=N)N)C(=O)N[C@H](C(=O)N[C@@H](CC(C)C)C(=O)N[C@@H](CCC(=O)O)C(=O)N[C@@H](CCCNC(=N)N)C(=O)N[C@H](C(N)=O)C(C)C)[C@@H](C)CC)[C@@H](C)O)[C@@H](C)CC)[C@@H](C)CC)C(C)C)C(C)C) [peptide of SEQ ID NO: 193]
